Laboratory results as given in patent US20150182631A1, “SYSTEM FOR […]-BASED ACTIVE INGREDIENTS” (Centre National De La Recherche Scientifique-CNRS, priority 2012, published 2015).
Changes are numbered by the printed parent chain. Names may count otherwise.

Columns and labels:
[1] = target: the molecule itself; test: isothermal titration calorimetry, dilution of concentrated XCL into buffer; tetramer-dimer equilibrium; tetramer-dimer equilibrium of XCL by dilution ITC
Method: In order to accurately measure the equilibrium constant of tetramerisation and also determine the thermodynamics of the tetramerisation of XCL, the inventors used isothermal titration calorimetry (Burrows et al., (1994) Lovatt et al., (1996) Barranco-Medina et al. (2009)). In this method, a concentrated solution of XCL was diluted in a buffer, and the dissociation heat of the dimers (or of the monomers) was measured. The quantity of heat released for each injection is governed by the enthalpy exchange from the tetramer to the dimer and the tetramer-dimer equilibrium constant.

[2] = target: the molecule itself; test: size exclusion chromatography at pH 7.2 and pH 4.4; tetramer kept
Method: The behaviour of the oxidised mutant A38C was also analysed. […] When the pH is decreased to 4.4, no modification in the elution volume is observed. The addition of the disulphide bridge therefore increases the stability of the protein assembly. The adding of 0.003% SDS leads to the dissociation of the tetramer into dimers, constituted of monomers bonded together by the disulphide bridge.

XCL labelled with RITC [3] = target: T1, XCL labelled with RITC (Xerocomus chrysenteron, RITC on surface epsilon-amino groups, 0.9 mol of RITC per mol of XCL); test: FRET kinetics at 580 nm after mixing XCL-FITC and XCL-RITC, double exponential fit; slow dissociation of the tetramer (proportion a=0.39); k1, slower of the two dissociation pathways of the tetramer
T1 construct: FRET acceptor population of XCL; also called RITC-XCL; XCL-RITC
T1 chain: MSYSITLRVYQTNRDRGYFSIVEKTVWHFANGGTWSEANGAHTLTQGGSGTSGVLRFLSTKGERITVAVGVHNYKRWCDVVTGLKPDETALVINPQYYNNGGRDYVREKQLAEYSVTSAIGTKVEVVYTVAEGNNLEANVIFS
Method: (§1) The speed of the exchange of subunits was measured by the same technique. The reaction is initiated by mixing the same volume of XCL-RITC (1 μM) and of XCL-FITC (1 μM) at 25° C. in 50 mM of phosphate buffer, 100 mM NaCl, pH 8.5. The excitation is carried out at 468 nm and the fluorescence emission at 580 nm is recorded every 0.5 seconds. The fluorescence intensity is normalised by using the equation: […]

XCL labelled with RITC [4] = target: T1, XCL labelled with RITC; test: FRET kinetics at 580 nm after mixing XCL-FITC and XCL-RITC, double exponential fit; fast dissociation of the tetramer; k2, faster of the two dissociation pathways of the tetramer
Method: as §1

[5] = Balanced FRET, exchange of monomers; assay type: physicochemical; settings: 1 h incubation, pH 8.5
Method: Fluorescence energy transfer was used to reveal the exchange of the XCL monomers. The exchange reaction is initiated by mixing the same volume of XCL-RITC (1 μM or only the buffer as a reference) and of XCL-FITC (1 μM) at 25° C. in 50 mM of phosphate buffer, 100 mM NaCl, pH 8.5. After one hour of incubation, the emission spectrum of the sample excited at 490 nm is recorded by spectrofluorimetry (Photon Technology International QM-4). The same experiments were carried out with A38C-RITC and A38C-FITC.
The oligomerization balance of the XCL protein was characterised by the measurement of the appearance of resonance energy transfer of the Förster type (FRET) between two populations of XCL labelled separately either with FITC (Fluorescein IsoThioCyanate) or with RITC (Rhodamine IsoThioCyanate).
In this same figure, is also shown the spectrum obtained by mixing the labelled protein, either by the donor or by the acceptor (dotted line curve). This spectrum was deconvoluted, which gives the spectra shown as a dotted line in FIG. 2A.
For the purposes of comparison, the same experiment was carried out with the variant A38C. This variant is covalently bonded by two additional disulphide bridges. A perfectly superimposable spectrum was obtained after mixing donor and acceptor labelled proteins and incubation of this mixture for 1 h at ambient temperature (dotted lines of FIG. 3B).

[6] = Confinement of fluorescein in the lectin cavity; settings: 4 days at ambient temperature, free fluorescein eliminated again
Method: The confinement experiments are carried out by incubating the wild-type protein (XCL) or the mutants (A38C) with the molecule to be tested. In order to carry out the control experiments with the mutant A38C, an oxidation step is carried out in the presence of GSSG in a phosphate buffer 50 mM, 100 mM NaCl, pH 7.2, OVN. The GSSG is then eliminated on a PD-10 sephadex G-25M column (GE Healthcare) pre-balanced in a phosphate buffer 50 mM, 100 mM NaCl, pH 8.5. The eluate is concentred at 1 ml on Vivaspin 15R 30,000 MWCO (Sartorius stedim). A batch of A38C is reduced to TCEP (under argon) with adding of NaOH for a final pH of 8.5. […] The quantity of fluorescein is measured by using an absorption coefficient of e511 nm=75,000 cm^−1 M^−1. The concentrations of XCL and of A38C after the confinement are calculated with e278 nm=[…]. The percentage of confinement is calculated by forming the ratio of the fluorescein/protein concentrations.
In the case with XCL, the inventors incubated the protein (15 μM) with fluorescein (10 mM) and then separated the protein from the non-confined molecules of fluorescein by two successive gel filtration columns. Beforehand, the inventors verified that if these two columns on the fluorescein solution are carried out at 10 mM, no residual free fluorescein is detected. […]

[7] = Chemical dissociation by size exclusion chromatography at acidic pH; assay type: physicochemical
Method: The size exclusion chromatography experiments were carried out on a GE-Healthcare Superose 12 PC 3.2/30 column. The columns are pre-balanced in the buffer tested, namely phosphate buffer 50 mM, 100 mM NaCl, pH7.2 or pH 4.4 in the absence or in the presence of 0.003% of SDS. The flow rate is 0.5 mL/min. The BSA and the RNase A are used as a size marker.
The inventors studied the behaviour of XCL in denaturing chemical conditions close to those encountered in the lysosomes. The analysis was carried out via exclusion chromatography with an acidic pH (pH 4.4). It appears that the elution peak of XCL in these denaturing conditions is displaced to greater elution volumes showing the appearance of a smaller size. When 0.003% SDS is added, the elution peak is displaced to the elution volume of the RNAse A which has a molecular weight close to the XCL monomer.
The behaviour of the oxidised mutant A38C was also analysed. […] The addition of the disulphide bridge therefore increases the stability of the protein assembly.

[8] = SDS-PAGE of tetramer and disulphide bridge stability; assay type: physicochemical; settings: reduced glutathione 10 mM in oxidation buffer
Method: The clone A38C was obtained by directed mutagenesis by using the XCL plasmid as a matrix and the protein produced and purified by using the same protocol as that used to produce XCL (Trigueros et al. (2003)). A yield of 25 mg of purified protein per litre of culture was obtained. The last part of the protocol consisted in a step of oxidation for 12 hours in the presence of 10 mM of oxidised glutathione. This step is required in order to produce disulphide bridges between the monomers. The forming of these covalent bonds was verified by SDS-PAGE. Two SDS-PAGE were prepared. Beta-mercaptoethanol was added to the samples in the first gel while beta-mercaptoethanol was not added to the second gel. When XCL is heated to 95° C. 5 min before the deposit, a single band is observed with a molecular weight slightly greater than 20 kDa on the two gels. This band corresponds to the species in monomer form.
A variant T12C was produced in the same manner as A38C by directed mutagenesis by using the XCL plasmid as a matrix. By using the same protocol, 10 mg of protein per litre of culture were produced. The oxidation rate of the variant T12C was sought by using the same method by SDS-PAGE as for A38C. These rates were compared with those obtained with the variant A38C. Several oxidative conditions were tested with different concentrations of reduced glutathione. […]

B1: Xerocomus chrysenteron lectin (XCL) (other)
chain: T1 chain
notes: Recombinant fungal lectin, a homotetramer in solution; also called wild-type protein; native XCL protein
Kd [1]: 4.5 µM

B2: XCL variant A38C, oxidised (other)
chain: T1 chain with A38C
modifications: interchain disulphide bridge between Cys 38 of opposite monomers (oxidised with GSSG)
notes: Homotetramer with two added disulphide bridges that link monomers diagonally; In the FRET experiment it was labelled with FITC or RITC; also called mutant A38C; oxidised mutant A38C
binding result [2]: binds

B3: XCL labelled with FITC (other)
chain: T1 chain
modifications: FITC on surface epsilon-amino groups, 4 mol of FITC per mol of XCL
notes: FRET donor population of XCL; also called FITC-XCL; XCL-FITC
koff (XCL labelled with RITC [3]): 0.012 s⁻¹ | koff (XCL labelled with RITC [4]): 0.042 s⁻¹

B4: A38C: XCL variant with alanine 38 replaced by cysteine, SEQ ID NO: 2; A38R reduced before confinement, A38NR not reduced, A38Cox oxidised (protein)
chain: T1 chain with A38C
modifications: Variant A38C
notes: A38R reduced before confinement, A38NR not reduced, A38Cox oxidised
FRET between FITC- and RITC-labelled protein after mixing (monomer redistribution) [5]: no FRET is observed | confinement rate after incubation [6]: remained unchanged | oligomeric state by elution volume at pH 4.4 with SDS ([7]; pH 4.4, 0.003% SDS): dissociation of the tetramer into dimers | oligomeric state by elution volume at pH 4.4 ([7]; pH 4.4, no SDS): no modification in the elution volume is observed

B5: T12C: XCL variant with threonine 12 replaced by cysteine, SEQ ID NO: 3 (protein)
chain: T1 chain with T12C
modifications: Variant T12C
stability of the additional disulphide bridge [8]: less stable than the disulphide bridge of A38C
